Measurements reported in patent publication US20160145654A1.

Key:
[1] = target: labeled mouse IgG2b monoclonal antibody conjugated to phycoerythrin; test: FACS of particles with 10 µg/mL PE labeled mouse IgG2b mAb
[2] = target: human IgG from pooled human serum (Sigma-Aldrich); test: ELISA of heated granules, human serum, anti-IgG-HRP
[3] = target: human IgG from pooled human serum (Sigma-Aldrich); test: ELISA, granules coated on wells, pooled human serum, polyclonal anti-IgG-HRP, OPD
[4] = target: labeled mouse IgG2b monoclonal antibody conjugated to phycoerythrin; test: FACS of particles with 10 µg/ml PE labeled mouse IgG2b mAb

Substance: ZZ domain-PHA synthase fusion without signal peptide, on PHA granules (from UniProt P23608 1-589)
- fold increased binding affinity against particles from pBHR69-ZZ(-)phaC (about 150 nm) [1]: 10 fold
- binding capacity after heating for 15 min at 60° C. [2]: 60%
- fold increase in absorption at 490 nm against wild type PHA granules [3]: > 2 fold
- fold more IgG bound per particle against particles from pBHR69-ZZ(-)phaC [4]: > 10 fold
